{"source": "paper doi:10.1101/432138", "molecular_target": "P02671", "test": "SEC-MALS", "data": [{"protein": "Fib1 fibrinogen (protein) chain 1: GPRVVERHQSACKDSDWPFCSDEDWNYKCPSGCRMKGLIDEVNQDFTNRINKLKNSLFEYQKNNKDSHSLTTNIMEILRGDFSSANNRDNTYNRVSEDLRSRIEVLKRKVIEKVQHIQLLQKNVRAQLVDMKRLEVDIDIKIRSCRGSCSRALAREVDLKDYEDQQKQLEQVIAKDLLPSRDRQHLPLIKMKPVPDLVPGNFKSQLQKVPPEWKALTDMPQMRMELERPGGNEITRGGSTSYGTGSETESPRNPSSAGSWNSGSSGPGSTGNRNPGSSGTGGTATWKPGSSGPGSTGSWNSGSSGTGSTGNQNPGSPRPGSTGTWNPGSSERGSAGHWTSESSVSGSTGQWHSESGSFRPDSPGSGNARPNNPDWGTFEEVSGNVSPGTRREYHTEKLVTSKGDKELRTGKEKVTSGSTTTTRRSCSKTVTKTVIGPDGHKEVTKEVVTSEDGSDCPEAMDLGTLSGIGTLDGFRHRHPDEAAFFDTASTGKTFPGFFSPMLGEFVSETESRGSESGIFTNTKESSSHHPGIAEFPSRGKSSSYSKQFTSSTSYNRGDSTFESKSYKMADEAGSEADHEGTHSTKRGHAKSRPVRDCDDVLQTHPSGTQSGIFNIKLPGSSKIFSVYCDQETSLGGWLLIQQRMDGSLNFNRTWQDYKRGFGSLNDEGEGEFWLGNDYLHLLTQRGSVLRVELEDWAGNEAYAEYHFRVGSEAEGYALQVSSYEGTAGDALIEGSVEEGAEYTSHNNMQFSTFDRDADQWEENCAEVYGGGWWYNNCQAANLNGIYYPGGSYDPRNNSPYEIENGVVWVSFRGADYSLRAVRMKIRPLVTQ chain 2: GHRPLDKKREEAPSLRPAPPPISGGGYRARPAKAAATQKKVERKAPDAGGCLHADPDLGVLCPTGCQLQEALLQQERPIRNSVDELNNNVEAVSQTSSSSFQYMYLLKDLWQKRQKQVKDNENVVNEYSSELEKHQLYIDETVNSNIPTNLRVLRSILENLRSKIQKLESDVSAQMEYCRTPCTVSCNIPVVSGKECEEIIRKGGETSEMYLIQPDSSVKPYRVYCDMNTENGGWTVIQNRQDGSVDFGRKWDPYKQGFGNVATNTDGKNYCGLPGEYWLGNDKISQLTRMGPTELLIEMEDWKGDKVKAHYGGFTVQNEANKYQISVNKYRGTAGNALMDGASQLMGENRTMTIHNGMFFSTYDRDNDGWLTSDPRKQCSKEDGGGWWYNRCHAANPNGRYYWGGQYTWDMAKHGTDDGVVWMNWKGSWYSMRKMSMKIRPFFPQQ chain 3: YVATRDNCCILDERFGSYCPTTCGIADFLSTYQTKVDKDLQSLEDILHQVENKTSEVKQLIKAIQLTYNPDESSKPNMIDAATLKSRKMLEEIMKYEASILTHDSSIRYLQEIYNSNNQKIVNLKEKVAQLEAQCQEPCKDTVQIHDITGKDCQDIANKGAKQSGLYFIKPLKANQQFLVYCEIDGSGNGWTVFQKRLDGSVDFKKNWIQYKEGFGHLSPTGTTEFWLGNEKIHLISTQSAIPYALRVELEDWNGRTSTADYAMFKVGPEADKYRLTYAYFAGGDAGDAFDGFDFGDDPSDKFFTSHNGMQFSTWDNDNDKFEGNCAEQDGSGWWMNKCHAGHLNGVYYQGGTYSKASTPNGYDNGIIWATWKTRWYSMKKTTMKIIPFNRLTIGEGQQHHLGGAKQVRPEHPAETEYDSLYPEDDL", "values": [{"measurement": "relative mass of the aggregates", "result": "about 4% of the total mass of fibrinogen"}]}]}
